In test [1] the target is T1, TNFR1.
T1 chain: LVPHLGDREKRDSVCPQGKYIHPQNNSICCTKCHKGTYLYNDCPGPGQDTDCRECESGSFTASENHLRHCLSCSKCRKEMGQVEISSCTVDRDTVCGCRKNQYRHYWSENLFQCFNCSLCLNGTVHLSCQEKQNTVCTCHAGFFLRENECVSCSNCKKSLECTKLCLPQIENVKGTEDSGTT

Test [2] concerns the target T1, TNFR1.
For test [3], the target named is T1, TNFR1.
The target in test [4] is T1, TNFR1. Kind of test: SPR (BIAcore), TNFR1 on CM-5 chip, peptide injected. Background: SPR reads the build-up and loss of mass on a sensor chip optically.

Like-named read-outs stand apart in the source and are kept apart here.

What is called Kd is the equilibrium constant for the complex coming apart. In the case of DEQHLETELH (modifications not checked) [selective TNFR1 antagonist peptide Hydrostatin-SN10], the Kd in the test with TNFR1 [1] is 2800 nM; in the test with TNFR1 [2], 2780 nM; with TNFR1 [3], 2830 nM; with TNFR1 [4] it was 2800 nM.

These data come from patent US20200277355A1.
